In article PMC9482650, “Quantitative fragmentomics allow affinity mapping of interactomes” (Nature Communications, 2022):
One block for each binder: values may come before it.

Tests used:
Experiment in all cases: holdup assay
Design in all cases: key: below the threshold = too weak to quantify, mostly under pKd 3.1 to 4
Inadl_5, Q8NI35 = biological target: Inadl_5, Q8NI35
GIPC2, Q8TF65 = biological target: GIPC2, Q8TF65
CASK, O14936 = biological target: CASK, O14936
SCRIB_1, Q14160 = biological target: SCRIB_1, Q14160
SCRIB_1, Q14160, sequence (Q14160 718-814): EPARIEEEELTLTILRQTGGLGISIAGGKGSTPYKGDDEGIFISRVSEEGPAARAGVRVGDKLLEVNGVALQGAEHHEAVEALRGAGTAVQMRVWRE

Inadl_1, Q8NI35 = biological target: Inadl_1, Q8NI35
Inadl_1, Q8NI35, sequence (Q8NI35 113-229): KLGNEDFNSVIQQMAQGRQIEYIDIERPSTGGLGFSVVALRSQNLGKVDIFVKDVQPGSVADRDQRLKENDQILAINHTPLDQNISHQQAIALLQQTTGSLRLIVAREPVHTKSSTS

GRASP, Q7Z6J2 = biological target: GRASP, Q7Z6J2
GRASP, Q7Z6J2, sequence (Q7Z6J2 96-193): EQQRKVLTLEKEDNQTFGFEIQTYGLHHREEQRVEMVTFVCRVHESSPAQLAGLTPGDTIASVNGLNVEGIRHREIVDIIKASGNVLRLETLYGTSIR

DLG2_3, Q15700 = biological target: DLG2_3, Q15700
MPDZ_10, O75970 = biological target: T1, MPDZ_10, O75970
T1 sequence (O75970 1624-1722, limits assumed, looked up): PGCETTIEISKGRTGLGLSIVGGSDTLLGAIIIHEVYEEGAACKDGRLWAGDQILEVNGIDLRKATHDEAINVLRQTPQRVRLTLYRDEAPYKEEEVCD

MPDZ_5, O75970 = biological target: T2, MPDZ_5, O75970
T2 sequence (O75970 695-796, limits assumed, looked up): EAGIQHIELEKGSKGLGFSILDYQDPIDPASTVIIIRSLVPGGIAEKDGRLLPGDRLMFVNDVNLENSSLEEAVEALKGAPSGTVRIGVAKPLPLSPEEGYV

IL16_3, Q14005 = biological target: IL16_3, Q14005
IL16_3, Q14005, sequence (Q14005 1107-1207): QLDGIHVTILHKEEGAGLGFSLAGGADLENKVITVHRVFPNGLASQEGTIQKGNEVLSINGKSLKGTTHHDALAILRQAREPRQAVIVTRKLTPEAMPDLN

MAGI2_2, Q86UL8 = biological target: MAGI2_2, Q86UL8
MAGI2_2, Q86UL8, sequence (Q86UL8 410-522): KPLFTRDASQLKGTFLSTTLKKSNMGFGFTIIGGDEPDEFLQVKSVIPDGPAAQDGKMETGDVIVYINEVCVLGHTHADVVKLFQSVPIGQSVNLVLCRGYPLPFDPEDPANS

FRMPD2_3, Q68DX3 = biological target: FRMPD2_3, Q68DX3
FRMPD2_3, Q68DX3, sequence (Q68DX3 1073-1166): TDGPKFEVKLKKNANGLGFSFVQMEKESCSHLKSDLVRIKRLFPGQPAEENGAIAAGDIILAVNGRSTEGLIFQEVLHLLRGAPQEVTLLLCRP

NHERF3_1, Q5T2W1 = biological target: T3, NHERF3_1, Q5T2W1
T3 sequence (Q5T2W1 4-100, limits assumed, looked up): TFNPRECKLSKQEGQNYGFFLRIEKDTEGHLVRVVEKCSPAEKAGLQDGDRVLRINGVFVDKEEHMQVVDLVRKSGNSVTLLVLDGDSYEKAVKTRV

PDLIM1, O00151 = biological target: PDLIM1, O00151
PDLIM1, O00151, sequence (O00151 1-87): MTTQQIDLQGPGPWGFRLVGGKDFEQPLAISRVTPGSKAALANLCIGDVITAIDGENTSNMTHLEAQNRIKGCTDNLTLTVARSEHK

MAGI2_3, Q86UL8 = biological target: MAGI2_3, Q86UL8
MAGI2_3, Q86UL8, sequence (Q86UL8 600-682): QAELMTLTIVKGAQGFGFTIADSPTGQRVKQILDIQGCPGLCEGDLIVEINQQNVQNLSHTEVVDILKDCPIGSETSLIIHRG

TJP2_1, Q9UDY2 = biological target: TJP2_1, Q9UDY2
TJP2_1, Q9UDY2, sequence (Q9UDY2 24-128): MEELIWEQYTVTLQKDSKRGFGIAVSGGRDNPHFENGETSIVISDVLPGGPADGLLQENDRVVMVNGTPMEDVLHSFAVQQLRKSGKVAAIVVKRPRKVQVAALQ

RADIL, Q96JH8 = biological target: T4, RADIL, Q96JH8
T4 sequence (Q96JH8 971-1071, limits assumed, looked up): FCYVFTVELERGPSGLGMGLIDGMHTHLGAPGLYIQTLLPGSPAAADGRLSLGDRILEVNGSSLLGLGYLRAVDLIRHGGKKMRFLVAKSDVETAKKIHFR

MAGI1_1, Q96QZ7 = biological target: MAGI1_1, Q96QZ7
MAGI1_1, Q96QZ7, sequence (Q96QZ7 1-106): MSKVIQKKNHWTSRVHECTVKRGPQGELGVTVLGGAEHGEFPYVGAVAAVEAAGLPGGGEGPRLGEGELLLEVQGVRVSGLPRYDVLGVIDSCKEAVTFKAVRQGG

SCRIB_2, Q14160 = biological target: SCRIB_2, Q14160
SCRIB_2, Q14160, sequence (Q14160 857-960): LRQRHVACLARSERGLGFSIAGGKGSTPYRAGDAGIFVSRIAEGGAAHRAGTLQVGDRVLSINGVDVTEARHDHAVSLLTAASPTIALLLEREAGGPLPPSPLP

DFNB31_1, Q9P202 = biological target: T5, DFNB31_1, Q9P202
T5 sequence (Q9P202 135-233, limits assumed, looked up): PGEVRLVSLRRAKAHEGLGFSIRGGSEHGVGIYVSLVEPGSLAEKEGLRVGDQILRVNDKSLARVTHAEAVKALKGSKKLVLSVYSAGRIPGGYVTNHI

GRID2IP_1, A4D2P6 = biological target: GRID2IP_1, A4D2P6
GRID2IP_1, A4D2P6, sequence (A4D2P6 1-87): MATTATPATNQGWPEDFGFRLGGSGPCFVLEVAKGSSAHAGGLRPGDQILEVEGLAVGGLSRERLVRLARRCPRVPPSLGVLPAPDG

Inadl_10, Q8NI35 = biological target: Inadl_10, Q8NI35
Inadl_10, Q8NI35, sequence (Q8NI35 1673-1763): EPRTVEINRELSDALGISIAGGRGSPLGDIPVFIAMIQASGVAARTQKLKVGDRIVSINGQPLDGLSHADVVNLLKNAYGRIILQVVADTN

DFNB31_2, Q9P202 = biological target: T6, DFNB31_2, Q9P202
T6 sequence (Q9P202 274-371, limits assumed, looked up): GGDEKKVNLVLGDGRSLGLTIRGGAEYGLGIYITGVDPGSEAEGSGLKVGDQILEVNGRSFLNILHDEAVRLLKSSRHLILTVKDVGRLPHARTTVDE

FRMPD1, Q5SYB0 = biological target: T7, FRMPD1, Q5SYB0
T7 sequence (Q5SYB0 52-145, limits assumed, looked up): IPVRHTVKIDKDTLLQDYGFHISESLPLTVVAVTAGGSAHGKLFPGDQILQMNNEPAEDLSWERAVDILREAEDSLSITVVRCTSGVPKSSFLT

LIN7A, O14910 = biological target: T8, LIN7A, O14910
T8 sequence (O14910 103-200, limits assumed, looked up): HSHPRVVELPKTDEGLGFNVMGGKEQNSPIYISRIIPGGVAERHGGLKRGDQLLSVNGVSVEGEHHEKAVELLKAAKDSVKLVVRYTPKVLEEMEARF

PARD3B_1, Q8TEW8 = biological target: T9, PARD3B_1, Q8TEW8
T9 sequence (Q8TEW8 196-299, limits assumed, looked up): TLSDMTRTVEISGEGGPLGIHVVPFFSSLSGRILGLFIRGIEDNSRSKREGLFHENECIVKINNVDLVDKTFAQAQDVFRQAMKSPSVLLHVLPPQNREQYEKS

DLG3_1, Q92796 = biological target: T10, DLG3_1, Q92796
T10 sequence (Q92796 125-227, limits assumed, looked up): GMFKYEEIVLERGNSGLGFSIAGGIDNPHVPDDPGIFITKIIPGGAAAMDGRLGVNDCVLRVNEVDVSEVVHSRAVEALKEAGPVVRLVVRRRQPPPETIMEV

GRIP2_3, Q9C0E4 = biological target: GRIP2_3, Q9C0E4
GRIP2_3, Q9C0E4, sequence (Q9C0E4 238-339): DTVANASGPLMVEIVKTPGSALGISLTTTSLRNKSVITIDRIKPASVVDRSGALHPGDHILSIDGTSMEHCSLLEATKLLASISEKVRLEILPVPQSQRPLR

[1] = plain residues with an end cap or a label only (N-terminal biotin on a linker: ahx)
[2] = plain residues with an end cap or a label only (N-terminal biotin on a linker: ado-ado)
[3] = plain residues with an end cap or a label only (N-terminal biotin on a linker: ttds)

GIPC2, Q8TF65, sequence (Q8TF65 112-203): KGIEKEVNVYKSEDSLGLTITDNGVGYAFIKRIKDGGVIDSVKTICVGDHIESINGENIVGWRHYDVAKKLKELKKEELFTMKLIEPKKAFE
Inadl_5, Q8NI35, sequence (Q8NI35 673-780): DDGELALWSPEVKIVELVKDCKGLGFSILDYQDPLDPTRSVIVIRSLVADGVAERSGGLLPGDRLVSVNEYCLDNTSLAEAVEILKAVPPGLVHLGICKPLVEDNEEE
CASK, O14936, sequence (O14936 487-570): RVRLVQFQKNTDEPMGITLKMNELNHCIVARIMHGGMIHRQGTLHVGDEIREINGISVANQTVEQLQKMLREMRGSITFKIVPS

pKd (Inadl_5, Q8NI35; [2]): 4.55 | pKd (GIPC2, Q8TF65; [2]): below the threshold | pKd (CASK, O14936; [2]): 3.55 | pKd (SCRIB_1, Q14160; [2]): below the threshold | pKd (Inadl_1, Q8NI35; [2]): 3.51 | pKd (GRASP, Q7Z6J2; [2]): below the threshold | pKd (DLG2_3, Q15700; [2]): below the threshold | pKd (MPDZ_10, O75970; [2]): below the threshold | pKd (MPDZ_5, O75970; [2]): 4.34 | pKd (IL16_3, Q14005; [2]): below the threshold | pKd (MAGI2_2, Q86UL8; [2]): 4.02 | pKd (FRMPD2_3, Q68DX3; [2]): 4.23 | pKd (NHERF3_1, Q5T2W1; [2]): 4.43 | pKd (PDLIM1, O00151; [2]): below the threshold | pKd (MAGI2_3, Q86UL8; [2]): below the threshold | pKd (TJP2_1, Q9UDY2; [2]): below the threshold | pKd (RADIL, Q96JH8; [2]): 4.51 | pKd (MAGI1_1, Q96QZ7; [2]): below the threshold | pKd (SCRIB_2, Q14160; [2]): below the threshold | pKd (DFNB31_1, Q9P202; [2]): below the threshold | pKd (GRID2IP_1, A4D2P6; [2]): below the threshold | pKd (Inadl_10, Q8NI35; [2]): below the threshold | pKd (DFNB31_2, Q9P202; [2]): below the threshold | pKd (FRMPD1, Q5SYB0; [2]): below the threshold | pKd (LIN7A, O14910; [2]): below the threshold | pKd (PARD3B_1, Q8TEW8; [2]): 3.84 | pKd (DLG3_1, Q92796; [2]): below the threshold | pKd (GRIP2_3, Q9C0E4; [2]): below the threshold
Binder: QKNKDKEYYV [NRXN3_rs746444206, Q9Y4C0]

pKd (Inadl_5, Q8NI35; [2]): below the threshold | pKd (GIPC2, Q8TF65; [2]): below the threshold | pKd (CASK, O14936; [2]): below the threshold | pKd (SCRIB_1, Q14160; [2]): 3.61 | pKd (Inadl_1, Q8NI35; [2]): below the threshold | pKd (GRASP, Q7Z6J2; [2]): below the threshold | pKd (DLG2_3, Q15700; [2]): 4.54 | pKd (MPDZ_10, O75970; [2]): below the threshold | pKd (MPDZ_5, O75970; [2]): below the threshold | pKd (IL16_3, Q14005; [2]): below the threshold | pKd (MAGI2_2, Q86UL8; [2]): 4.48 | pKd (FRMPD2_3, Q68DX3; [2]): below the threshold | pKd (NHERF3_1, Q5T2W1; [2]): 4.54 | pKd (PDLIM1, O00151; [2]): below the threshold | pKd (MAGI2_3, Q86UL8; [2]): 3.51 | pKd (TJP2_1, Q9UDY2; [2]): 3.88 | pKd (RADIL, Q96JH8; [2]): below the threshold | pKd (MAGI1_1, Q96QZ7; [2]): below the threshold | pKd (SCRIB_2, Q14160; [2]): below the threshold | pKd (DFNB31_1, Q9P202; [2]): 4.78 | pKd (GRID2IP_1, A4D2P6; [2]): below the threshold | pKd (Inadl_10, Q8NI35; [2]): below the threshold | pKd (DFNB31_2, Q9P202; [2]): below the threshold | pKd (FRMPD1, Q5SYB0; [2]): below the threshold | pKd (LIN7A, O14910; [2]): below the threshold | pKd (PARD3B_1, Q8TEW8; [2]): below the threshold | pKd (DLG3_1, Q92796; [2]): 3.58 | pKd (GRIP2_3, Q9C0E4; [2]): below the threshold
Binder: RGGFGRQTQI [NCBP2L, A6PVI3]

Continued, binder first:

Binder: HSGSYLVTSV [APC, P25054]
pKd (Inadl_5, Q8NI35; [1]): below the threshold | pKd (GIPC2, Q8TF65; [1]): below the threshold | pKd (CASK, O14936; [1]): below the threshold | pKd (SCRIB_1, Q14160; [1]): 5.04 | pKd (Inadl_1, Q8NI35; [1]): below the threshold | pKd (GRASP, Q7Z6J2; [1]): 5.06 | pKd (DLG2_3, Q15700; [1]): 4.67 | pKd (MPDZ_10, O75970; [1]): 4.06 | pKd (MPDZ_5, O75970; [1]): below the threshold | pKd (IL16_3, Q14005; [1]): below the threshold | pKd (MAGI2_2, Q86UL8; [1]): 4.18 | pKd (FRMPD2_3, Q68DX3; [1]): below the threshold | pKd (NHERF3_1, Q5T2W1; [1]): below the threshold | pKd (PDLIM1, O00151; [1]): below the threshold | pKd (MAGI2_3, Q86UL8; [1]): 4.31 | pKd (TJP2_1, Q9UDY2; [1]): below the threshold | pKd (RADIL, Q96JH8; [1]): 4.23 | pKd (MAGI1_1, Q96QZ7; [1]): below the threshold | pKd (SCRIB_2, Q14160; [1]): 4.33 | pKd (DFNB31_1, Q9P202; [1]): 3.93 | pKd (GRID2IP_1, A4D2P6; [1]): below the threshold | pKd (Inadl_10, Q8NI35; [1]): 3.64 | pKd (DFNB31_2, Q9P202; [1]): below the threshold | pKd (FRMPD1, Q5SYB0; [1]): below the threshold | pKd (LIN7A, O14910; [1]): below the threshold | pKd (PARD3B_1, Q8TEW8; [1]): below the threshold | pKd (DLG3_1, Q92796; [1]): 3.82 | pKd (GRIP2_3, Q9C0E4; [1]): below the threshold

Binder: TGDTLEKFVEGL [CBP, Q92793]
pKd (Inadl_5, Q8NI35; [3]): below the threshold | pKd (GIPC2, Q8TF65; [3]): below the threshold | pKd (CASK, O14936; [3]): below the threshold | pKd (SCRIB_1, Q14160; [3]): below the threshold | pKd (Inadl_1, Q8NI35; [3]): below the threshold | pKd (GRASP, Q7Z6J2; [3]): below the threshold | pKd (DLG2_3, Q15700; [3]): below the threshold | pKd (MPDZ_10, O75970; [3]): 3.67 | pKd (MPDZ_5, O75970; [3]): below the threshold | pKd (IL16_3, Q14005; [3]): below the threshold | pKd (MAGI2_2, Q86UL8; [3]): below the threshold | pKd (FRMPD2_3, Q68DX3; [3]): below the threshold | pKd (NHERF3_1, Q5T2W1; [3]): below the threshold | pKd (PDLIM1, O00151; [3]): below the threshold | pKd (MAGI2_3, Q86UL8; [3]): below the threshold | pKd (TJP2_1, Q9UDY2; [3]): below the threshold | pKd (RADIL, Q96JH8; [3]): below the threshold | pKd (MAGI1_1, Q96QZ7; [3]): below the threshold | pKd (SCRIB_2, Q14160; [3]): below the threshold | pKd (DFNB31_1, Q9P202; [3]): below the threshold | pKd (GRID2IP_1, A4D2P6; [3]): below the threshold | pKd (Inadl_10, Q8NI35; [3]): below the threshold | pKd (DFNB31_2, Q9P202; [3]): below the threshold | pKd (FRMPD1, Q5SYB0; [3]): below the threshold | pKd (LIN7A, O14910; [3]): below the threshold | pKd (PARD3B_1, Q8TEW8; [3]): below the threshold | pKd (DLG3_1, Q92796; [3]): below the threshold | pKd (GRIP2_3, Q9C0E4; [3]): below the threshold
